The record followed here is article PMC3950521 (mBio, 2014).

What all share (test): SAXS
Series [1] addresses choline-binding domain of wt-LytA (LytA^CBD) (Streptococcus pneumoniae TIGR4).
Series [2] concerns the target full-length prophage LytA (prophage of Streptococcus pneumoniae Hungary 19A-6).
The series “SAXS” concerns the molecule itself.

Usually stoichiometry N stands for a count of units in the complex or per binding partner.

Molecule “choline-binding domain of wt-LytA (LytA^CBD) (domain or fragment)” showed a stoichiometry N in series [1] of 2. full-length prophage LytA (enzyme) came in with a stoichiometry N in series [2] of 2.

B1: full-length wild-type LytA (N-acetylmuramoyl-L-alanine amidase, major autolysin of Streptococcus pneumoniae) (enzyme, Streptococcus pneumoniae TIGR4, UniProt P06653 1-318, looked up)
chain: MEINVSKLRTDLPQVGVQPYRQVHAHSTGNPHSTVQNEADYHWRKDPELGFFSHIVGNGCIMQVGPVDNGAWDVGGGWNAETYAAVELIESHSTKEEFMTDYRLYIELLRNLADEAGLPKTLDTGSLAGIKTHEYCTNNQPNNHSDHVDPYPYLAKWGISREQFKHDIENGLTIETGWQKNDTGYWYVHSDGSYPKDKFEKINGTWYYFDSSGYMLADRWRKHTDGNWYWFDNSGEMATGWKKIADKWYYFNEEGAMKTGWVKYKDTWYYLDAKEGAMVSNAFIQSADGTGWYYLKPDGTLADKPEFTVEPDGLITVK
For B1, in “SAXS”, the “stoichiometry N” value was found to be 2.

B2: recombinant full-length His-tagged LytA, wt-LytA(N-His6) (enzyme, Streptococcus pneumoniae TIGR4, UniProt P06653 1-318, looked up)
chain: MEINVSKLRTDLPQVGVQPYRQVHAHSTGNPHSTVQNEADYHWRKDPELGFFSHIVGNGCIMQVGPVDNGAWDVGGGWNAETYAAVELIESHSTKEEFMTDYRLYIELLRNLADEAGLPKTLDTGSLAGIKTHEYCTNNQPNNHSDHVDPYPYLAKWGISREQFKHDIENGLTIETGWQKNDTGYWYVHSDGSYPKDKFEKINGTWYYFDSSGYMLADRWRKHTDGNWYWFDNSGEMATGWKKIADKWYYFNEEGAMKTGWVKYKDTWYYLDAKEGAMVSNAFIQSADGTGWYYLKPDGTLADKPEFTVEPDGLITVK
Take B2: the “stoichiometry N” value in “SAXS” was 2.
